In US20100143365A1:

What was measured:
[1] = molecular target: human fibrillar Aβ42 (human) (UniProt P05067); test: ELISA, Aβ fibrils
[2] = molecular target: lysozyme Gallus gallus fibrils (Gallus gallus) (UniProt P00698); test: ELISA, lysozyme fibrils
Chain of UniProt P00698 (P00698 other isoform, or with tags, fused parts or gaps limits assumed): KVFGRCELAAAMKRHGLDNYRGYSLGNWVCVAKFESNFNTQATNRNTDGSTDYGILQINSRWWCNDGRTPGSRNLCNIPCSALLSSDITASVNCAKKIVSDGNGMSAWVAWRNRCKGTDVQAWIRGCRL

Chain of UniProt P05067 (P05067 672-713 limits assumed): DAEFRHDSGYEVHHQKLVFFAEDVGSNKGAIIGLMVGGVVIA

OD Values [1]: 0.011 OD | OD Values [2]: 0.095 OD
B1: scFv21 (anti-amyloid scFv designated Pan 21′) (scFv)
scFv: DKLMAEVQLLESGGGLVQPGGSLRLSCAASGFTFSSYAMSWVRQAPGKGLEWVSSIQKSGEKTHYADSVKGRFTISRDNSKNTLYLQMNSLRAEDTAVYYCAKKRTLFDYWGQGTLVTVSSGGGGSGGGGSGGGGSTDIQMTQSPSSLSASVGDRVTITCRASQSISSYLNWYQQKPGKAPKLLIYRASYLQSGVPSRFSGSGSGTDFTLTISSLQPEDFATYYCQQSYSLPTTFGQGTKVEIKRAAAHHHHHHGAAEQKLISEEDLN
